Measured values: patent US20080318246A1 (ALBERT EINSTEIN COLLEGE OF MEDICINE OF YESHIVA UNIVERSITY, published 2008)
Square brackets hold non-standard residues; d marks the D form. Carminic acid = quencher bound covalently; Ala(Pyr) = not defined here; Dap = NC[C@H](N)C(=O)O

Target: T1, 14-3-3τ (UniProt P27348 1-245)
T1 sequence (looked up): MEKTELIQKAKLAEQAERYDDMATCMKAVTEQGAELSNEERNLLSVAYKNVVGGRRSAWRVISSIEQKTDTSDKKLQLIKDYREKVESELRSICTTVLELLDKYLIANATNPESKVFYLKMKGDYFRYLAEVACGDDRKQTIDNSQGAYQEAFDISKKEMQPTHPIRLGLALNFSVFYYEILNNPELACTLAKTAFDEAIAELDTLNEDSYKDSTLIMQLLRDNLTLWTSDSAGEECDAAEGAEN
Test: cell-based or functional assay

fold increase in fluorescence upon phosphorylation by PKA: 2.2 fold
B1: P14, AcGAla(Pyr)TGRRDap(Carminic acid)SLPA-amide, serine-phosphorylated by PKA in the assay (peptide)
peptide: Ac-G[Ala(Pyr)]TGRR[Dap](Carminic acid)SLPA-NH2
modifications: reading uncertain; also: Ser phosphorylated by PKA in the assay
